The results in this text go back to US6780603.

The target in the assay is α2β1 integrin receptor of human mesangial cells (human) (UniProt P05556). Briefly: cell-based or functional assay.

For “P1H5 anti-α2 integrin monoclonal antibody”, the inhibition of adhesion of human mesangial cells grown in 5 mM glucose to cIV (percent of binding in the presence of W6/32) amounted to 60% and the inhibition of adhesion of human mesangial cells grown in 25 mM glucose to cIV (percent of binding in the presence of W6/32) came out at 75%.
